Substrate: CC(=O)SCC[N+](C)(C)C
Assay: Steady state kinetics of substrate hydrolysis, HuBChE
Format: biochemical, human
Conditions: other: HuBChE, equation 1, 50 mM sodium phosphate pH 8.0, 22 °C

B1: HuBChE (Homo sapiens) (protein)
chain: EDDIIIATKNGKVRGMNLTVFGGTVTAFLGIPYAQPPLGRLRFKKPQSLTKWSDIWNATKYANSCCQNIDQSFPGFHGSEMWNPNTDLSEDCLYLNVWIPAPKPKNATVLIWIYGGGFQTGTSSLHVYDGKFLARVERVIVVSMNYRVGALGFLALPGNPEAPGNMGLFDQQLALQWVQKNIAAFGGNPKSVTLFGESAGAASVSLHLLSPGSHSLFTRAILQSGSFNAPWAVTSLYEARNRTLNLAKLTGCSRENETEIIKCLRNKDPQEILLNEAFVVPYGTPLSVNFGPTVDGDFLTDMPDILLELGQFKKTQILVGVNKDEGTAFLVYGAPGFSKDNNSIITRKEFQEGLKIFFPGVSEFGKESILFHYTDWVDDQRPENYREALGDVVGDYNFICPALEFTKKFSEWGNNAFFYYFEHRSSKLPWPEWMGVMHGYEIEFVFGLPLERRDNYTKAEEILSRSIVKRWANFAKYGNPNETQNNSTSWPVFKSTEQKYLTLNTESTRIMTKLRAQQCRFWTSFFPKVLEMTGNIDEAEWEWKAGFHRWNNYMMDWKNQFNDYTSKKESCVGL
  Km: 31 ± 4 µM
  kcat: 23±2 x10^3 min^−1
  kcat/Km: 697±14 ×10^3 min^−1 mM^−1

Reference: article PMC6086383
